Data as given in PMC11530643 (Communications Biology, 2024).
Ends that are not written are not given here. * marks the point of attachment. MTSL = spin label from S-(1-oxyl-2,2,5,5-tetramethyl-2,5-dihydro-1H-pyrrol-3-yl)methyl methanesulfonothioate, attached to the cysteine side chain, CC1(C)C=C(CS*)C(C)(C)N1[O]

Molecular target: FOXO4 forkhead domain (FHD; 95–195 a.a.) (human, UniProt P98177 95-195)
Assay: NMR paramagnetic relaxation enhancement

FOXO4 forkhead domain (FHD; 95–195 a.a.), sequence (P98177 95-195): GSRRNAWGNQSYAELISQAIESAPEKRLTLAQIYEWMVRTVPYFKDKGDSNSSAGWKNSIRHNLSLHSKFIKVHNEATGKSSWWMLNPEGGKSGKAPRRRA

binding result: binds
Binder: DLDLDMYMENLEC(MTSL)DMDNIISDLMDEGEGLDFNFEPDP (domain or fragment, human, UniProt P98177 469-505, looked up) [FOXO4 conserved region 3 (CR3; 469–505 a.a.), MTSL-labelled at C481]
